Ten molecules from US20060228349A1 (published 2006) can be followed below.

In general, Kd refers to a measure of binding affinity in units of concentration.

Experiment [1] addresses T1, Aβ-derived diffusible ligands (synthetic ADDLs), soluble oligomers of amyloid β1-42.
T1 construct: Oligomeric preparation of synthetic Aβ1-42 in DMSO/F12 (monomer, trimer, tetramer, 12-24mer on SDS-PAGE); number of copies not fixed; also called soluble Aβ oligomers
Put plainly: immunofluorescence of ADDLs bound to primary hippocampal neurons.

The target in experiment [2] is T2, biotin-Aβ1-20 (biotin (position not given)).
T2 peptide: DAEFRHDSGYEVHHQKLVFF
As to the kind of experiment: BIACORE, biotin-Aβ1-20 as antigen; column Fab. (In general: In SPR one partner is held on a chip, and binding of the other changes the refractive index at the surface.)

Experiment [3] deals with T3, Biotinylated ADDL preparations (bADDLs) (N-terminal biotin).
T3 construct: Oligomer, number of copies not fixed; also called biotinylated ADDL antigen; high molecular weight 10% bADDL
Put plainly: BIACORE, bADDL as antigen; column Fab (row shifted one column to the left).

For experiment [4], the target named is T4, SEC Peak 1 fraction of ADDLs (large aggregates, >50 kDa).
T4 construct: Monomer, trimer, tetramer and 12-24mer on SDS-PAGE
As to the kind of experiment: sandwich ELISA on SEC peaks (FIG. 3). (In general: ELISA stands for enzyme-linked immunosorbent assay.)

The target of experiment [5] is T5, SEC Peak 2 fraction of ADDLs (small aggregates, <30 kDa).
T5 construct: Mostly monomer with small amounts of trimer and tetramer, no 12-24mer
As to the kind of experiment: sandwich ELISA on SEC peaks (FIG. 3).

Experiment [6] concerns the target T1, Aβ-derived diffusible ligands …. Put plainly: solution equilibrium titration, free IgG by ELISA, GraFit; SE 0.25.
For experiment [7], the target named is T6, ADDL fibril preparation (Aβ1-42 fibrils).
T6 construct: Fibrillar assembly; number of copies not fixed
Put plainly: solution equilibrium titration, free IgG by ELISA, GraFit; SE 0.99.

Experiment [8] has as its target T7, amyloid beta (1-40) peptide.
T7 construct: Used as monomer-like control; also called Aβ1-40; monomer preparation
As to the kind of experiment: solution equilibrium titration, free IgG by ELISA, GraFit; SE 2.64.

For experiment [9], the target named is T8, Aβ1-20 peptide.
T8 peptide: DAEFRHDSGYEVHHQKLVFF
Put plainly: peptide ELISA.

The target of experiment [10] is T6, ADDL fibril preparation (Aβ1-42 fibrils). As to the kind of experiment: solution equilibrium titration, free IgG by ELISA, GraFit; SE 0.59.
Experiment [11] has as its target T1, Aβ-derived diffusible ligands …. Put plainly: solution equilibrium titration, free IgG by ELISA, GraFit; SE 0.74.
The target of experiment [12] is T7, amyloid beta (1-40) peptide. Put plainly: solution equilibrium titration, free IgG by ELISA, GraFit; SE 21.86.
The target of experiment [13] is T1, Aβ-derived diffusible ligands …. As to the kind of experiment: solution equilibrium titration, free IgG by ELISA, GraFit; SE 1.63.
The target of experiment [14] is T8, Aβ1-20 peptide. Put plainly: solution equilibrium titration, free IgG by ELISA, GraFit; SE 4.39.
Experiment [15] has as its target T6, ADDL fibril preparation (Aβ1-42 fibrils). Put plainly: solution equilibrium titration, free IgG by ELISA, GraFit; SE 5.78.
Experiment [16] addresses T7, amyloid beta (1-40) peptide. As to the kind of experiment: solution equilibrium titration, free IgG by ELISA, GraFit; SE 6.21.
Another experiment concerns the target T9, Aβ1-12 peptide.
T9 peptide: DAEFRHDSGYEV
As to the kind of experiment: competition dot blot with peptides.

A further experiment deals with T10, Aβ12-28 peptide.
T10 peptide: VHHQKLVFFAEDVGSNK
As to the kind of experiment: competition dot blot with peptides.

The target of experiment [17] is T2, biotin-Aβ1-20. As to the kind of experiment: BIACORE, biotin-Aβ1-20 as antigen; column IgG1#1.
The target in experiment [18] is T1, Aβ-derived diffusible ligands …. As to the kind of experiment: solution equilibrium titration, free IgG by ELISA, GraFit; SE 0.09.
For experiment [19], the target named is T6, ADDL fibril preparation (Aβ1-42 fibrils). Put plainly: solution equilibrium titration, free IgG by ELISA, GraFit; SE 0.47.
Experiment [20] concerns the target T7, amyloid beta (1-40) peptide. As to the kind of experiment: solution equilibrium titration, free IgG by ELISA, GraFit; SE 5.05.
Experiment [21] has as its target T8, Aβ1-20 peptide. As to the kind of experiment: solution equilibrium titration, free IgG by ELISA, GraFit; SE 24.41.
For experiment [22], the target named is T3, Biotinylated ADDL preparations (bADDLs). Put plainly: BIACORE, bADDL as antigen; column IgG1#1 (row shifted one column to the left).
For experiment [23], the target named is T1, Aβ-derived diffusible ligands …. Put plainly: solution equilibrium titration, free IgG by ELISA, GraFit; SE 1.03.
The target in experiment [24] is T6, ADDL fibril preparation (Aβ1-42 fibrils). Put plainly: solution equilibrium titration, free IgG by ELISA, GraFit; SE 3.69.
Experiment [25] concerns the target T7, amyloid beta (1-40) peptide. Put plainly: solution equilibrium titration, free IgG by ELISA, GraFit; SE 4.14.
Experiment [26] has as its target T1, Aβ-derived diffusible ligands …. Put plainly: solution equilibrium titration, free IgG by ELISA, GraFit; SE 0.52.
The target of experiment [27] is T6, ADDL fibril preparation (Aβ1-42 fibrils). As to the kind of experiment: solution equilibrium titration, free IgG by ELISA, GraFit; SE 2.40.
The target of experiment [28] is T7, amyloid beta (1-40) peptide. As to the kind of experiment: solution equilibrium titration, free IgG by ELISA, GraFit; SE 5.84.
In experiment [29] the target is T8, Aβ1-20 peptide. Put plainly: solution equilibrium titration, free IgG by ELISA, GraFit; SE 7.07.
Experiment [30] has as its target T1, Aβ-derived diffusible ligands …. As to the kind of experiment: solution equilibrium titration, free IgG by ELISA, GraFit; SE 0.42.
Experiment [31] deals with T6, ADDL fibril preparation (Aβ1-42 fibrils). Put plainly: solution equilibrium titration, free IgG by ELISA, GraFit; SE 1.60.
The target in experiment [32] is T7, amyloid beta (1-40) peptide. Put plainly: solution equilibrium titration, free IgG by ELISA, GraFit; SE 2.07.

B1: murine anti-ADDL monoclonal antibody 2H4 (antibody, mouse IgG2a, V domains shown)
VH: DVQLVESGGGLVQPGGSRKLSCAASGFTFSSFGMHWVRQAPEKGLEWVAYIRSGSSTIYYADTVKGRFTISRDNPKNTLFLQMTSLRSEDTAMYYCTRGGNYYGSSRFAYWGQGTLVTVSA
VL: DIKMTQSPSSMYASLGERVTITCKASQDINSYLSWFQQKPGKSPKTLIYRANRFVDGVPSRFSGSGSGQDYSLTISSLEYEDMGIYFCLQYDEFPLTFGAGTKLVLK
With B1, the binding result in [1] is “binds”.

B2: Fab of mouse 20C2 (Fab, V domains shown)
VH: QVTLKESGPGILKPSQTLSLTCSLSGFSLSTSGMGVGWFRQPSGKGLEWLAHIWWDDDKSYNPSLKSRLTISKYTSRNQVFLTITSVDTADTATYYCARRQLGLRSIDAMDYWGQGTSVTVSS
VL: DVLMTQTPLSLPVSLGDQASISCRSSQSILHSNGNTYLEWYLQKPGQSPKLLIYKVSNRFSGVPDRFSGSGSGTDFTLKISRVEAEDLGVYYCFQGSLVPLTFGAGTKLELK
notes: also called Mouse-20C2 (Fab column)
As to B2, the Kd with biotin-Aβ1-20 [2] came out at 83 nM; in experiment [3], 62 nM.

B3: murine anti-ADDL monoclonal antibody 2A10 (antibody, mouse IgG1, V domains shown)
VH: QVTLKESGPGILKPSQTLSLTCSFSGFSLSTSGMGVGWIRQPSGKGLEWLAHIWWDDDKYYNPSLKSQLTISKDTSRNQVFLKITSVDTADTATYYCARRSISTLVPEDYFDYWGQGTTLTVSS
VL: DVLMTQTPLSLPVSLGDQASISCRSSQSIVHSNGNTYLEWYLQKPGQSPKLLIYKVSNRFSGVPDRFSGSGSGTDFTLKISRVEAEDLGVYYCFQGSHVPLTFGAGTKLELK
B3: the binding result in experiment [4] and in experiment [5] was “binds” throughout. In addition, the Kd was determined as 2.29 nM in experiment [6], 6.72 nM in experiment [7] and 14.7 nM in experiment [8].

B4: murine anti-ADDL monoclonal antibody 3B3 (antibody, mouse IgG1, V domains shown)
VH: DVQLVESGGGLVQPGGSRKLSCAASGFTFSSFGMHWVRQAPEKGLEWVAYISRGSSTIYYADTVKGRFTISRDNPKNTLFLQMTSLRSEDTAMYYCARGITTALDYWGQGTSVTVSS
VL: DVLMTQTPLSLPVSLGDQASISCRSSQSIVHSNGNTYLEWYLQKPGQSPKLLIYKASNRFSGVPDRFSGSGSGTDFTLKISRVEAEDLGVYYCFQGSHVPPTFGGGTKLEIK
With B4, in the experiment with Aβ1-20 peptide [9], the binding result is “binds”. For the same molecule, the results for the Kd in [10], in experiment [11] and in [12] were 7.21 nM, 10 nM and 105 nM, respectively.

B5: murine anti-ADDL monoclonal antibody 1F6 (antibody, mouse IgG1, V domains shown)
VH: DVQLVESGGGLVQPGGSRKLSCAASGFTFSSFGMHWVRQAPEKGLEWVAYISSVSSTIYYADTVKGRFTISRDNPKNTLFLQMTSLRSEDTAMYYCARSGYGSSYGYGMDYWGQGTLVTVSS
VL: DVLMTQTPLSLPVSLGDQASISCRSSQSIVHSNGNTYLEWYLQKPGQSPKLLIYKVSNRFSGVPDRFSGSGSGTDFTLKISRVEAEDLGVYYCFQGSHVPLTFGAGTKLELK
Consider B5, for which, in the experiment with Aβ1-20 peptide [9], the binding result was “binds”.

B6: murine anti-ADDL monoclonal antibody 5F10 (antibody, V domains shown)
VH: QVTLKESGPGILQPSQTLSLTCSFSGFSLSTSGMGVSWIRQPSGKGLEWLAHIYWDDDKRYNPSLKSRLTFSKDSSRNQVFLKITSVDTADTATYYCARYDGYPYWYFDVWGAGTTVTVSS
VL: VVLMTQTPLSLPVSLGDQASISCRSSQSLVHSNGNTYLHWYLQKPGQSPKLLIYKVSNRFSGVPDRFSGSGSGTDFTLKISRVEAEDLGVYFCFQSTHVPLTFGAGTKLELK
notes: also called SF10
As for B6, the Kd in [13] was 11.9 nM; with Aβ1-20 peptide [14] it was 6.1 nM; in experiment [15], 28.9 nM; in [16], 23.5 nM.

B7: murine anti-ADDL monoclonal antibody 20C2 (antibody, mouse IgG1, V domains shown)
VH: QVTLKESGPGILKPSQTLSLTCSLSGFSLSTSGMGVGWFRQPSGKGLEWLAHIWWDDDKSYNPSLKSRLTISKYTSRNQVFLTITSVDTADTATYYCARRQLGLRSIDAMDYWGQGTSVTVSS
VL: DVLMTQTPLSLPVSLGDQASISCRSSQSILHSNGNTYLEWYLQKPGQSPKLLIYKVSNRFSGVPDRFSGSGSGTDFTLKISRVEAEDLGVYYCFQGSLVPLTFGAGTKLELK
notes: also called Mouse-20C2
In the case of B7, the binding result with Aβ1-12 peptide and with Aβ12-28 peptide was “no binding (tested: 200 pmol peptide in 200 µL)” in each case. Moreover, the Kd with biotin-Aβ1-20 [17] was determined as 3.4 nM; in experiment [18] it was 0.92 nM; in experiment [19] it was 3.62 nM; in experiment [20] it was 30.5 nM; with Aβ1-20 peptide [21], 71.3 nM; in experiment [22], 4.1 nM.

B8: murine anti-ADDL monoclonal antibody 4C2 (antibody, mouse IgG1, V domains shown)
VH: QVTLKESGPGILKPSQTLSLTCSFSGFSLSTSGMGVGWIRQPSGKGLEWLAHIWWDDDKYYNPSLKSQLTISKDTSRNQVFLKITSVDTADTATYYCARRSITTVVPEDYFAYWGQGTTLTVSS
VL: DVLMTQSPLSLPVSLGDQASISCRSSQSIVHSNGNTYLEWYLQKPGQSPKLLIYKVSNRFSGVPDRFSGSGSGTDFTLKISRVEAEDLGVYYCFQGSHVPLTFGAGTKLELK
On to B8, for which the binding result in experiment [4] and in [5] was “binds” each time. In addition, the results for the Kd in experiment [23], in experiment [24] and in experiment [25] were 8.08 nM, 19.2 nM and 21.9 nM, respectively.

B9: murine anti-ADDL monoclonal antibody 2D6 (antibody, mouse IgG1, V domains shown)
VH: QVTLKESGPGILKPSQTLSLTCSFSGFSLSTSGMGVGWIRQPSGKGLEWLAHIWWDDDKYYNPSLKSQLTISKDTSRNQVFLKITSVDTADTATYYCARRSISTVIPEDYFDYWGQGTILTVSS
VL: DVLMTQTPLSLTVSLGDQASISCRSSQSIVHSNGNTYLEWYLQKPGQSPKLLIYKVSNRFSGVPDRFSGSGSGTDFTLKISRVEAEDLGVYYCFQGSHVPLTFGAGTKLELK
As to B9, the Kd in experiment [26] is 5.05 nM; in [27], 14.4 nM; in experiment [28], 25.7 nM; with Aβ1-20 peptide [29] it was 30.2 nM.

B10: murine anti-ADDL monoclonal antibody 4E2 (antibody, mouse IgG1, V domains shown)
VH: QVTLKESGPGILKPSQTLSLTCSFSGFSLSTSGMGVGWIRQPSGKGLEWLAHIWWDDDKYYNPSLKSQLTISKDTSRNQVFLKITSVDTADTATYYCARRSINSVVPEDYFDYWGQGTTLTVSL
VL: DVLMTQTPLSLPVSLGDQASISCRSSQSIVHSNGNTYLEWYLQKPGQSPKLLIYKVSNRFSGVPDRFSGSGSGTDFTLKISRVEAEDLGVYYCFQGSHVPLTFGAGTKLELK
In the case of B10, the binding result in experiment [4] and in [5] was “binds” throughout. In addition, the Kd in [30] was 4.26 nM; in experiment [31], 9.4 nM; in experiment [32], 20.2 nM.
